Experimental data taken from US6803203B1, “DNA-PK assay” (Brookhaven Science Associates, priority 1993, dated 2004).
“Also recorded” adds a separate entry of the source. Residues, ends and D or L forms follow the SMILES beside them. No end group written: not given here.

Key:
Type in all cases: biochemical
[1] = molecular target: T1, DNA-PK (Homo sapiens, UniProt P78527); experiment: Conditions that result in 50% inhibition of DNA-PK activity; details: for 50% Inhibition / IC50: inhibition of DNA-PK activity in vitro
T1 construct: DNA-PK was purified from HeLa cells; endogenous in cells; host or cells: HeLa S3 cells; the endogenous enzyme was purified in house by chromatography
Description: Experiments were performed to determine optimal DNA-PK assay conditions. It was determined that DNA-PK is active over a broad pH range and the most common buffers with the exception of phosphate buffers. A summary of assay conditions that optimize DNA-PK activity in vitro is found in Table 4 along with a summary of conditions that result in 50% inhibition of DNA-PK activity.
The methods used to obtain results in the second section (Inhibitor section) of Table 4 are illustrative of methods that are applicable to identifying substances that alter the activity of DNA-PK.

[2] = molecular target: T1, DNA-PK; experiment: Phosphorylation of synthetic peptides by purified DNA-PK (phosphocellulose paper binding method); details: for PO4 incorp.: each peptide at 200 μM, calf thymus DNA 10 μg/ml, 30° C.
Description: Phenylmethylsulfonyl fluoride was added to the S10 (10,000×g) supernatant as a powder to 0.5 mM. DNA-PK activity was found in the 100,000×g (ribosomal) pellet. DNA-PK preparations typically were made from 200 ml of S10 supernatant that had been derived from approximately 10^10 cells. All steps were performed at 4° C. unless indicated otherwise.
Phosphorylation reactions were performed in a 20- or 40-μl final volume as previously described by Chen, et al., J. Virol., 10:5131-5140 (1991) and Lees-Miller, et al., Mol. Cell. […] In particular, in addition to synthetic peptide substrates or protein substrates, the assays contained 50 mM HEPES (pH 7.5), 100 mM KCl, 10 mM MgCl2, 2 mM EGTA, 0.1 mM EDTA and 0.125 mM ATP containing [^32P]ATP at 0.2 mCi/ml. […] Assays were started by adding 1 μl of kinase sample. Incubations were at 30° C. for 7 min.
For determinations of kinetic constants, the ATP concentration was 0.5 mM. When present, hsp90 was included at 0.5 mg/ml. Assay mixtures were preincubated at 30° C. for 2 min before addition of 0.1 to 0.5 μg (protein) of the DNA-PK preparation.
In particular, kinase reactions were stopped by adding an equal volume of 30% acetic acid, and portions of the acidified reaction were spotted on 2- by 2-cm squares of P-81 paper (Whatman, Inc., Clifton, N.J.). […] The P-81 squares were then transferred to scintillation vials containing 3.5 ml of water, and bound radioactivity was determined from the Cerenkov radiation. Enzyme activity was calculated from triplicate determinations, using the specific activity of the ATP and the protein concentration, which was determined by the Bio-Rad dye-binding assay (Bio-Rad (Bradford) Protein Assay Kit 1, Cat. No. 500-001, Bio-Rad Laboratories, Hercules, Calif.), using bovine serum albumin as the standard. […] The kinetic constants, Km and Vmax for each peptide sequence were calculated from plots of 1/[S] versus 1/V, the values reported are averages of at least two independent determinations.

[3] = molecular target: T1, DNA-PK; experiment: Poorer substrate peptides added to (SEQ ID NO: 8) phosphorylation assays; details: peptide up to 250 μM; (SEQ ID NO: 8) at 100 μM
[4] = molecular target: T1, DNA-PK; experiment: Identification of phosphorylated residues (sequence analysis, S-ethylcysteine conversion); details: p53 residue numbering
Description: To determine which of these were phosphorylated, after incubation with DNA-PK, radiochemical sequence analysis was performed by using a Beckman 890M spinning-cup sequencer (Beckman Instruments, Palo Alto, Calif.) as described by Lees-Miller, et al., J. Biol. Chem., 264:17275-17280 (1989). The peptide was isolated by reverse-phase HPLC, peptidylphosphoserine was converted to S-ethylcysteine, and the position of phenylthiohydantoin (PTH)-S-ethylcysteine was determined by chemical microsequence analysis using an Automated Protein/Peptide sequencer (Applied Biosystems, Foster City, Calif.) and a 120 PTH-Amino Acid Analyzer (Applied Biosystems, Foster City, Calif.) as described by Lees-Miller, et al., J. Biol. Chem., 264:17275-17280 (1989).
A peptide corresponding to mouse p53 residues Met^4-Pro^31, (SEQ ID NO: 2), was also examined (See Table 1). Serine 7 of mouse p53 is at the position equivalent to proline 4 of human p53, and the glutamine at position 8 of mouse p53 is conserved among mammals as reported by Soussi, et al., Oncogene, 5:945-952 (1990). After phosphorylation of (SEQ ID NO: 2) the peptide was digested with endoproteinase Glu-C, and the resulting fragments were separated by reverse-phase HPLC. […] Each peptide was treated to convert phosphoserine to S-ethylcysteine; then they were resequenced.

[5] = molecular target: T1, DNA-PK; experiment: Phosphorylation of recombinant protein substrates by purified DNA-PK (SDS-PAGE, phosphorimage); details: 5 μg/ml calf thymus DNA compared to no addition of DNA; 30 minutes at 30° C.
Description: The recombinant protein substrates, a total of six, (at approximately 0.1 mg/ml final concentration) were separately mixed with hsp90 in a phosphorylation reaction with purified DNA-PK (0.6 pg, 0.02 units/assay) without (−) or with (+) 5 μg/ml calf thymus DNA, in the presence of ^32P-ATP for 30 minutes at 30° C. as described by Lees-Miller, et al., Mol. Cell. Biol., 12:5041-5049 (1992). The phosphorylation reactions were stopped with SDS sample buffer and analyzed with SDS-PAGE. The gel was fixed, stained with Coomassie brilliant blue, dried and developed by autoradiographic procedures. The results of which can be seen in FIG. 9.

Compound | PO4 incorp. [2] | substrate activity for DNA-PK (in words) [2] | inhibition of phosphorylation of (SEQ ID NO: 8) [3] | further results
OCC(O)CO [Glycerol] |  |  |  | effect on DNA-PK activity (in words) [1]: inhibited; 50% Inhibition [1]: 25 % v/v
O=P(O)(O)OP(=O)(O)O [Pyrophosphate] |  |  |  | effect on DNA-PK activity (in words) [1]: inhibited; IC50 [1]: 3 mM
CSCC[C@H](NC(=O)[C@H](C)NC(=O)[C@H](CCC(N)=O)NC(=O)[C@H](CO)NC(=O)[C@@H]1CCCN1C(=O)[C@H](CC(C)C)NC(=O)[C@@H]1CCCN1C(=O)[C@H](CO)NC(=O)[C@H](CC(C)C)NC(=O)[C@@H](NC(=O)[C@H](CC(N)=O)NC(=O)[C@@H](N)CC(N)=O)C(C)C)C(=O)N[C@@H](CC(=O)O)C(=O)N[C@@H](CC(=O)O)C(=O)N[C@@H](CC(C)C)C(=O)N[C@@H](CCSC)C(=O)N[C@@H](CCCCN)C(=O)N[C@@H](CCCCN)C(=O)O [SEQ ID NO: 6] |  |  |  | Km relative to (SEQ ID NO: 4) [2]: twice as high
CC(C)C[C@H](NC(=O)[C@H](CC(=O)O)NC(=O)[C@H](C)NC(=O)[C@H](Cc1ccccc1)NC(=O)[C@H](C)NC(=O)[C@H](CCC(=O)O)NC(=O)[C@H](CCC(N)=O)NC(=O)[C@H](CO)NC(=O)[C@H](CC(C)C)NC(=O)[C@@H]1CCCN1C(=O)[C@@H]1CCCN1C(=O)[C@@H](N)CCC(=O)O)C(=O)N[C@@H](Cc1c[nH]c2ccccc12)C(=O)N[C@@H](CCCCN)C(=O)N[C@@H](CCCCN)C(=O)O [SEQ ID NO: 11] (H-EPPLSQEAFADLWKK-OH) |  |  |  | Km relative to (SEQ ID NO: 8) [2]: twofold increase
EPPDSQEAFADLWKK [SEQ ID NO: 17] | 48 pmol/min/μg of DNA-PK | less effective substrate for DNA-PK than peptides (SEQ ID NOS: 15 AND 16) |  | 
EPPLAQETFSDLWKK [SEQ ID NO: 22] |  | not phosphorylated efficiently by DNA-PK |  | 
EPPLSQETFKK [SEQ ID NO: 9] | 15 pmol/min/μg of DNA-PK |  | None of these peptides significantly inhibited the phosphorylation | rate of phosphorylation relative to control (SEQ ID NO: 8) [2]: approximately 10%
Glu Pro Pro Leu Ser Gln Glu Thr Phe Ser Asp—Lys Lys (EPPLSQETFSDKK; Human p53 residues 11-21; listed as Homo sapiens) [SEQ ID NO: 10] | 12 pmol/min/μg of DNA-PK |  | None of these peptides significantly inhibited the phosphorylation | rate of phosphorylation relative to control (SEQ ID NO: 8) [2]: approximately 10%
Heparin [reference compound] |  |  |  | effect on DNA-PK activity (in words) [1]: inhibited; 50% Inhibition [1]: 1 µg/mL
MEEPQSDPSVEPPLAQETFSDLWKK [SEQ ID NO: 5] | 5.3 pmol/min/μg of DNA-PK | ineffective substrate for DNA-PK | None of these peptides significantly inhibited the phosphorylation | rate of phosphorylation relative to (SEQ ID NO: 4) ([2]; at 200 μM): about 10%
MEESQSDISLELPLSQETFSGLWKLLPP [SEQ ID NO: 2] |  |  |  | site phosphorylated by DNA-PK [4]: Ser^7 and Ser^18
PESEQAFADLWKK [SEQ ID NO: 23] |  | not phosphorylated by DNA-PK |  | 
Phosphate |  |  |  | effect on DNA-PK activity (in words) [1]: inhibited; IC50 [1]: 10 mM
hsp90: human heat shock protein hsp90, a known DNA-PK substrate [reference compound] |  |  |  | increase in phosphate incorporation by addition of double stranded DNA [5]: 20 fold

More lines, main results first:

PO4 incorp. [2] | Compound | substrate activity for DNA-PK (in words) [2] | inhibition of phosphorylation of (SEQ ID NO: 8) [3] | further results
0.4 pmol/min/μg of DNA-PK | EPPLSEEAFADLWKK [SEQ ID NO: 32] | effectively eliminated the ability of the sequence to act as a DNA-PK substrate | None of these peptides significantly inhibited the phosphorylation | 
0.1 pmol/min/μg of DNA-PK | EPPLSNEAFADLWKK [SEQ ID NO: 33] | eliminated the ability of the sequence to act as a DNA-PK substrate | None of these peptides significantly inhibited the phosphorylation | 
2.3 pmol/min/μg of DNA-PK | EPPLSYEAFADLLKK [SEQ ID NO: 34] |  |  | 
0 pmol/min/μg of DNA-PK | His Lys Lys Leu Met Phe Lys Thr Glu Gly Pro Asp Ser Asp (HKKLMFKTEGPDSD; Human p53 residues 380-393; listed as Homo sapiens) [SEQ ID NO: 31] | phosphorylated at a negligible rate; also recorded: not substrates for DNA-PK | None of these peptides significantly inhibited the phosphorylation | 
0 pmol/min/μg of DNA-PK | Ser Lys Lys Gly Gln Ser Thr Ser Arg His Lys Lys Leu Met Phe (SKKGQSTSRHKKLMF; Human p53 residues 371-385; listed as Homo sapiens) [SEQ ID NO: 30] | phosphorylated at a negligible rate |  | 
